Where no end group is shown, it is not given here. [ ]: non-standard residue; d: D form. Bip = N[C@@H](Cc1ccc(-c2ccccc2)cc1)C(=O)O
B1: GLP-1 11-mer peptide analog His-Ala-Glu-Gly-Thr-Phe-Thr-Ser-Asp-Bip-Bip-NH2 (peptide)
peptide: HAEGTFTSD[Bip][Bip]-NH2
modifications: N-terminus assumed
SMILES: C[C@H](NC(=O)[C@@H](N)Cc1c[nH]cn1)C(=O)N[C@@H](CCC(=O)O)C(=O)NCC(=O)N[C@H](C(=O)N[C@@H](Cc1ccccc1)C(=O)N[C@H](C(=O)N[C@@H](CO)C(=O)N[C@@H](CC(=O)O)C(=O)N[C@@H](Cc1ccc(-c2ccccc2)cc1)C(=O)N[C@@H](Cc1ccc(-c2ccccc2)cc1)C(N)=O)[C@@H](C)O)[C@@H](C)O

Molecular target: Full-length human glucagon-like peptide 1 receptor (human, UniProt P43220 24-463)
Test: cell-based or functional assay

Binder	cAMP production (EC50), cAMP cell-based assay in CHO-GLP-1R-19 cells
B1	1100 nM
HAEGTFTSD-NH2	> 1 millimolar

Source: patent US20070287670A1 (Bristol-Myers Squibb, published 2007)
